Measured values from the supplement of paper PMC9112550, “Optimization of the antimicrobial peptide Bac7 by deep mutational scanning” (BMC Biology, 2022).

Tested on: Escherichia coli TOP10
Test: shrunken log2 fold change of peptide-encoding DNA abundance (4.5 h post-induction vs induction); higher = less antimicrobial activity (less host growth inhibition)
Settings: time post-induction: 4.5 h; library: site-saturation at positions 5, 18, 19, 20
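Further: peptides expressed intracellularly from a pBAD plasmid library in pooled LB shake-flask culture, induced with 0.3% L-arabinose, DNA abundance read by NGS, three biological replicates, DESeq2 with apeglm shrinkage.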

Row | Sequence | shrunken log2 fold change
1 | RRIRDRPPRLPRPRPRPWWTPRP | -0.327
2 | RRIRDRPPRLPRPRPRPWYAPRP | 0.00564
3 | RRIRDRPPRLPRPRPRPWYDPRP | -0.6
4 | RRIRDRPPRLPRPRPRPWYLPRP | -0.11
5 | RRIRDRPPRLPRPRPRPWYPPRP | -0.0798
6 | RRIRDRPPRLPRPRPRPYALPRP | -0.051
7 | RRIRDRPPRLPRPRPRPYAYPRP | 0.0345
8 | RRIRDRPPRLPRPRPRPYCAPRP | -0.204
9 | RRIRDRPPRLPRPRPRPYCCPRP | -0.151
10 | RRIRDRPPRLPRPRPRPYDFPRP | -0.178
11 | RRIRDRPPRLPRPRPRPYGIPRP | -0.00973
12 | RRIRDRPPRLPRPRPRPYIQPRP | -0.161
13 | RRIRDRPPRLPRPRPRPYKPPRP | -0.0448
14 | RRIRDRPPRLPRPRPRPYLCPRP | -0.148
15 | RRIRDRPPRLPRPRPRPYMEPRP | -0.000464
16 | RRIRDRPPRLPRPRPRPYQCPRP | -0.00205
17 | RRIRDRPPRLPRPRPRPYRGPRP | -0.0122
18 | RRIRDRPPRLPRPRPRPYRSPRP | -0.142
19 | RRIRDRPPRLPRPRPRPYTEPRP | -0.0346
20 | RRIRDRPPRLPRPRPRPYTWPRP | 0.00489
21 | RRIRDRPPRLPRPRPRPYVGPRP | -0.0122
22 | RRIRDRPPRLPRPRPRPYVMPRP | -0.342
23 | RRIRDRPPRLPRPRPRPYVQPRP | -0.13
24 | RRIRDRPPRLPRPRPRPYWYPRP | 0.00534
25 | RRIRERPPRLPRPRPRPAAIPRP | -0.215

Row | Sequence | shrunken log2 fold change
26 | RRIRERPPRLPRPRPRPAAPPRP | 0.504
27 | RRIRERPPRLPRPRPRPACNPRP | -0.102
28 | RRIRERPPRLPRPRPRPACVPRP | 0.24
29 | RRIRERPPRLPRPRPRPADAPRP | 0.117
30 | RRIRERPPRLPRPRPRPAFCPRP | -0.21
31 | RRIRERPPRLPRPRPRPAHDPRP | -0.181
32 | RRIRERPPRLPRPRPRPAHEPRP | 0.0932
33 | RRIRERPPRLPRPRPRPAHIPRP | -0.0903
34 | RRIRERPPRLPRPRPRPAIDPRP | -0.457
35 | RRIRERPPRLPRPRPRPAKWPRP | 0.0478
36 | RRIRERPPRLPRPRPRPALDPRP | -0.0626
37 | RRIRERPPRLPRPRPRPAMAPRP | 0.631
38 | RRIRERPPRLPRPRPRPAMDPRP | 0.283
39 | RRIRERPPRLPRPRPRPAMIPRP | -0.0554
40 | RRIRERPPRLPRPRPRPAMSPRP | -0.0829
41 | RRIRERPPRLPRPRPRPAMVPRP | 0.037
42 | RRIRERPPRLPRPRPRPANDPRP | -0.0189
43 | RRIRERPPRLPRPRPRPANHPRP | -0.00846
44 | RRIRERPPRLPRPRPRPAPAPRP | 0.305
45 | RRIRERPPRLPRPRPRPAQEPRP | 0.597
46 | RRIRERPPRLPRPRPRPAQQPRP | -0.0516
47 | RRIRERPPRLPRPRPRPARLPRP | 0.361
48 | RRIRERPPRLPRPRPRPARNPRP | 0.194
49 | RRIRERPPRLPRPRPRPASAPRP | 0.33
50 | RRIRERPPRLPRPRPRPATKPRP | 0.156

Row | Sequence | shrunken log2 fold change
51 | RRIRERPPRLPRPRPRPATNPRP | -0.386
52 | RRIRERPPRLPRPRPRPAYGPRP | -0.108
53 | RRIRERPPRLPRPRPRPAYVPRP | -0.859
54 | RRIRERPPRLPRPRPRPCAVPRP | -0.0406
55 | RRIRERPPRLPRPRPRPCDVPRP | -0.017
56 | RRIRERPPRLPRPRPRPCERPRP | -0.0138
57 | RRIRERPPRLPRPRPRPCHCPRP | -0.344
58 | RRIRERPPRLPRPRPRPCKNPRP | -0.121
59 | RRIRERPPRLPRPRPRPCLNPRP | -0.267
60 | RRIRERPPRLPRPRPRPCMGPRP | -0.0551
61 | RRIRERPPRLPRPRPRPCNVPRP | -0.0745
62 | RRIRERPPRLPRPRPRPCPAPRP | -0.224
63 | RRIRERPPRLPRPRPRPCPEPRP | -0.324
64 | RRIRERPPRLPRPRPRPCPLPRP | -0.265
65 | RRIRERPPRLPRPRPRPCPRPRP | -0.021
66 | RRIRERPPRLPRPRPRPCPYPRP | -0.367
67 | RRIRERPPRLPRPRPRPCQSPRP | -0.127
68 | RRIRERPPRLPRPRPRPCQWPRP | -0.017
69 | RRIRERPPRLPRPRPRPCRLPRP | -0.197
70 | RRIRERPPRLPRPRPRPCSLPRP | -0.264
71 | RRIRERPPRLPRPRPRPCTDPRP | -0.169
72 | RRIRERPPRLPRPRPRPCVPPRP | 0.0169
73 | RRIRERPPRLPRPRPRPCVWPRP | 0.0291
74 | RRIRERPPRLPRPRPRPCWCPRP | -0.0114
75 | RRIRERPPRLPRPRPRPCYGPRP | -0.274

Row | Sequence | shrunken log2 fold change
76 | RRIRERPPRLPRPRPRPDAVPRP | -0.0146
77 | RRIRERPPRLPRPRPRPDDYPRP | -0.118
78 | RRIRERPPRLPRPRPRPDELPRP | -0.00377
79 | RRIRERPPRLPRPRPRPDGAPRP | 0.129
80 | RRIRERPPRLPRPRPRPDGCPRP | 0.0163
81 | RRIRERPPRLPRPRPRPDHRPRP | -0.00204
82 | RRIRERPPRLPRPRPRPDILPRP | 0.0234
83 | RRIRERPPRLPRPRPRPDIMPRP | -0.196
84 | RRIRERPPRLPRPRPRPDKGPRP | -0.0116
85 | RRIRERPPRLPRPRPRPDLQPRP | 0.00923
86 | RRIRERPPRLPRPRPRPDNGPRP | -0.0776
87 | RRIRERPPRLPRPRPRPDPKPRP | 0.00358
88 | RRIRERPPRLPRPRPRPDQFPRP | -0.154
89 | RRIRERPPRLPRPRPRPDQHPRP | -0.165
90 | RRIRERPPRLPRPRPRPDQSPRP | -0.336
91 | RRIRERPPRLPRPRPRPDRTPRP | -0.0361
92 | RRIRERPPRLPRPRPRPDSAPRP | -0.213
93 | RRIRERPPRLPRPRPRPDSFPRP | 0.0952
94 | RRIRERPPRLPRPRPRPDYHPRP | -0.486
95 | RRIRERPPRLPRPRPRPDYMPRP | 0.0229
96 | RRIRERPPRLPRPRPRPECMPRP | -0.0491
97 | RRIRERPPRLPRPRPRPEDGPRP | -0.0324
98 | RRIRERPPRLPRPRPRPEEGPRP | -0.007
99 | RRIRERPPRLPRPRPRPEFGPRP | -0.171
100 | RRIRERPPRLPRPRPRPEFLPRP | 0.26

Row | Sequence | shrunken log2 fold change
101 | RRIRERPPRLPRPRPRPEGHPRP | 0.11
102 | RRIRERPPRLPRPRPRPEHGPRP | 0.174
103 | RRIRERPPRLPRPRPRPEHLPRP | 0.0163
104 | RRIRERPPRLPRPRPRPEINPRP | -0.2
105 | RRIRERPPRLPRPRPRPEIQPRP | 0.422
106 | RRIRERPPRLPRPRPRPEKCPRP | -0.00149
107 | RRIRERPPRLPRPRPRPEKEPRP | 0.0662
108 | RRIRERPPRLPRPRPRPEKQPRP | -0.00177
109 | RRIRERPPRLPRPRPRPEKTPRP | -0.031
110 | RRIRERPPRLPRPRPRPELFPRP | 0.201
111 | RRIRERPPRLPRPRPRPELGPRP | 0.0169
112 | RRIRERPPRLPRPRPRPELSPRP | 0.314
113 | RRIRERPPRLPRPRPRPEMLPRP | 0.0972
114 | RRIRERPPRLPRPRPRPEMRPRP | 0.151
115 | RRIRERPPRLPRPRPRPENDPRP | -0.0725
116 | RRIRERPPRLPRPRPRPEPNPRP | 0.366
117 | RRIRERPPRLPRPRPRPEQLPRP | 0.00434
118 | RRIRERPPRLPRPRPRPERGPRP | 0.119
119 | RRIRERPPRLPRPRPRPERTPRP | 0.0163
120 | RRIRERPPRLPRPRPRPESHPRP | -0.0157
121 | RRIRERPPRLPRPRPRPEVFPRP | 0.0133
122 | RRIRERPPRLPRPRPRPEVPPRP | -0.00233
123 | RRIRERPPRLPRPRPRPEVVPRP | 0.122
124 | RRIRERPPRLPRPRPRPEYPPRP | -0.162
125 | RRIRERPPRLPRPRPRPFAGPRP | -1.68

Row | Sequence | shrunken log2 fold change
126 | RRIRERPPRLPRPRPRPFAIPRP | -0.122
127 | RRIRERPPRLPRPRPRPFAMPRP | -0.207
128 | RRIRERPPRLPRPRPRPFAYPRP | 0.155
129 | RRIRERPPRLPRPRPRPFDYPRP | 0.155
130 | RRIRERPPRLPRPRPRPFFLPRP | -0.384
131 | RRIRERPPRLPRPRPRPFHIPRP | -0.133
132 | RRIRERPPRLPRPRPRPFIEPRP | -0.59
133 | RRIRERPPRLPRPRPRPFIGPRP | -0.0528
134 | RRIRERPPRLPRPRPRPFIYPRP | -0.0998
135 | RRIRERPPRLPRPRPRPFKEPRP | -0.346
136 | RRIRERPPRLPRPRPRPFKMPRP | -0.559
137 | RRIRERPPRLPRPRPRPFMEPRP | -0.00484
138 | RRIRERPPRLPRPRPRPFMPPRP | -0.777
139 | RRIRERPPRLPRPRPRPFMSPRP | -0.0685
140 | RRIRERPPRLPRPRPRPFMWPRP | -0.262
141 | RRIRERPPRLPRPRPRPFNLPRP | -0.233
142 | RRIRERPPRLPRPRPRPFPVPRP | -0.214
143 | RRIRERPPRLPRPRPRPFQMPRP | -0.112
144 | RRIRERPPRLPRPRPRPFRCPRP | 0.00668
145 | RRIRERPPRLPRPRPRPFRKPRP | -0.534
146 | RRIRERPPRLPRPRPRPFRRPRP | 0.0491
147 | RRIRERPPRLPRPRPRPFSYPRP | -0.0589
148 | RRIRERPPRLPRPRPRPFTCPRP | -0.00783
149 | RRIRERPPRLPRPRPRPFTLPRP | -0.21
150 | RRIRERPPRLPRPRPRPFTWPRP | -0.737
